The DeepSol protein solubility set

Experiment: soluble on expression in E. coli; label from the status in PepcDB or PDB records

Sequence	soluble on expression in E. coli
MHHHHHHSSGVDLGTENLYFQSMENRELTYITNSIAEAQRVMAAMLADERLLATVRKVADACIASIAQGGKVLLAGNGGSAADAQHIAGEFVSRFAFDRPGLPAVALTTDTSILTAIGNDYGYEKLFSRQVQALGNEGDVLIGYSTSGKSPNILAAFREAKAKGMTCVGFTGNRGGEMRELCDLLLEVPSADTPKIQEGHLVLGHIVCGLVEHSIFGKQ	soluble
MVSDAHFQGQFEVELKYRVKNHDAFLNMVKQIEHEVMFENNQESDWFYDTPQRTLTQQGKSLVLREIQPAGIKLWIVKGPEADRCEATNITKLDSAQSMLENMGYEVIQCSKKIRSIFFVGEFHITLDFLDGFGHFAEFAIMTDDETALARYRERLVALAQQFHLSEADREHRSYKEILSALEHHHHHH	soluble
MLSTVFRRTMATGRHFIAVCQMTSDNDLEKNFQAAKNMIERAGEKKCEMVFLPECFDFIGLNKNEQIDLAMATDCEYMEKYRELARKHNIWLSLGGLHHKDPSDAAHPWNTHLIIDSDGVTRAEYNKLHLFDLEIPGKVRLMESEFSKAGTEMIPPVDTPIGRLGLSICYDVRFPELSLWNRKRGAQLLSFPSAFTLNTGLAHWETLLRARAIENQCYVVAAAQTGAHNPKRQSYGHSMVVDPWGAVVAQCSERVDMCFAEIDLSYVDTLREMQPVFSHRRSDLYTLHINEKSSETGGLKFARFNIPADHIFYSTPHSFVFVNLKPVTDGHVLVSPKRVVPRLTDLTDAETADLFIVAKKVQAMLEKHHNVTSTTICVQDGKDAGQTVPHVHIHILPRRAGDFGDNEIYQKLASHDKEPERKPRSNEQMAEEAVVYRNLM	soluble
MGSDKIHHHHHHMKIVVAKNIGFCFGVERAIRTVEELLDEGKKVVTDGEIVHNKQVMEQLTKKGLKVSSEMTDGEVFVVRAHGIPKDRLEELKKIFPEVVDLTCPIVSQLFKTAQRYAKERKVIVFGKEDHPEMVALRGYAPAIVTKVPFKLEEKKVVFLSQTTSSLEEYKEFVAAMIRMNEFEEAVFLNTICPVTVNREREVEELSKICDLSIVVGGKHSSNTGKLFRIASKHSKTIWIESPDELPADVVKYGTVCVFSGTSTPNSLIENVVRKLKEMEGKRDGTI	not soluble
MPDAVYVFTPKGHIRALPRGATALDFAYAVHSDLGNQCVAVKINNELLPLRTELKSGDIVEVVTAPYSKLEHHHHHH	not soluble
MGSDKIHHHHHHMNFLDGHLFPENQQPLIITAAPYAPGWLPSDFPEDIPVTMEEQIQKAVDCYNAGATVLHLHVRELDGKGSKRLSKFNELVAGVRKAVPEMIIQVGGSISFAPENEGQAAKWLSDDTRHMLADLEPTPDQVTVTVNTSQMNVTDHAEDADFRGTSRENPAIFNAYKEMTVPAQPGWVEEHVRRLTAKGIQSAFQCYNTNSFESVERLMRRGFYKGPLVMNWVAIGGGMDTPNVYSLGNFMRGVPDGAVVTVESNVRNVLPVNMMGIAMGLHVRCGTEDVLWNQKRTAKMSTVKQIEQLVRISHEFGREIATAKEAREISKIGVFYDTVEESLQANGFAPNRNGGTQGYLRKTR	not soluble
MENNPFQRTEKIDISWCPGCGNFAIKASLSNALSKLNLKPQNVAIISGIGQAGKMPHYMFVNGFHTLHGRAIPAATAVKATNPELTVIAEGGDGDMYAEGGNHLIHAIRRNPNITVLIHNNQIYGLTKGQASPTTLVSTKTPTQPWGVFEEPLNPIALAISLNASFVARTFSGNLEKTEEIIIKAINHKGLSIVDIFHPCPSFNKVNTLQWYNENTYFLEDHDVTDRKKAFEKALQTEKYPLGIFYTCEKPVFEEVVPPYISEKTPIWKREPDLEKIEEIINSKRT	not soluble
KGDVDEKLLDKGIEAVLDQTDYVNGGFGSAPKFHHAKAVELLLTHHFFTGDEEVLKAAEITLDAMARGGIYDHLLGGFFRYSTDAKWVTPHYEKMLYDNAELLYLYSIAYALTGKRLYQKIADGIVEYYRKFGCSNEGGFYASQDADIGELDEGGYYLFSDRELKEILDEREFRIATLYYDIQGERKLPRIFLTEEEISKILGVSVEEVERAVNSARRKMLEFREQREMPYIDTTIYAGWNGLMIEALCMHHKVFGDNWSLEMAEKTANRLLKEFWDGRELLHTHNVEGLSEDYIFFARGLLALFEVTQRHEYLEKCFEIVDSAVEKFWDGEDGGFFD	not soluble
MASMTGGQQMGRIPGNSPRMVLLESEQFLTELTRLFQKCRSSGSVFITLKKYDGRTKPIPRKSSVEGLEPAENKCLLRATDGKRKISTVVSSKEVNKFQMAYSNLLRANMDGLKKRDKKNKSKKSKPAQGGEQKLISEEDDSAGSPMPQFQTWEEFSRAAEKLYLADPMKVRVVLKYRHVDGNLCIKVTDDLVCLVYRTDQAQDVKKIEKFHSQLMRLMVAKESRNVTMETE	soluble
MGSDKIHHHHHHMEIGQRFLVQLEETGQYFVNYQDGILIELAFDATVGKQSPAFSDLEHTAAYLEEHLRSHQTQALLLASKIHAYDASPVERITQMISIHSFFSTHRLVHPLNAYSTALLISRLEATDPQLQRTVELYRLAKKSHRFIVSPLLVSFLFLNALRRGEIATIHARIEATYDILKKRFGRSQQTYVTALLLALLPEDDQATYIAQVVQSRNLYRKHGIPLSFHGLLALLGDPRMHQTALEGLADQFRNTPHFKYRKDLVFLTAVRLYLADHPTLHQLFAPFSPSTLDDTSNLLPVYLFPVDLTDTSHATDGGMTDGGFDGGDGGGGGGD	not soluble
MSTTGSAPPNSKLKSVEDTDDDRTLAEDDQNDQNSGSMDHRFERIKVTLMMTQGKKFGLGIVSVHQRILVCKVENESLVAGVLKYGDQIIEINKKNVLNKIDCKKRLMQCLKDKGQVDIIIVRPKTADAVTMIEQEIQLSQQPSTTAQPKIN	not soluble
MGSDKIHHHHHHMTEILLKELTKSDIDWMITTGNQQELAAGTILIQERGSTEFFHILLDGTFSVTLSQPENNPLTRAFAAIEGEEISGREIGRLSRGEIVGESPLIGTRPPATTITSVEKSLVISIPIRELAAKLQQDVGFAARFYRAIAIIISNRIENTIDQLGRRNLAQSQPLRDVLFILGELHDSDIDWMMASGTPQKIPANTILIHEQGTVDALYILLDGKMSLSISLDERNPLVRAFAAIEGNEISGREIAKLSKGEIIGETPFIDGSLPPTTVKAIEHSVVLSIPRQQLAAKLQQDIGFASRFYRVIASLLDQRLQPMVSQLGYGRRVYSRGESLHEGLEYDDELDINTLDRMAIAGKRFDWMLERLKVS	not soluble
MGSDKIHHHHHHMKCSLGLEKCPDDTLRCFPKIEQPFGIVIFGASGDLTKRKLIPALNRLFEAGILPERFFVLGAARTKMDDKKFRSRFDANPDFLEHCSYISVDYQDPESFKQLKNTIETLIKRIDSSNLVFYLAVPPDLYIPILENLSKTGLNEKPARVVIEKPFGKDLESARRLEDTLQKYFQEDQIFRIDHYLGKETVQNILVFRFANFIFEEIWNNKFVDHVQITMAEDIGVEHRAGYFENVGLLRDIFQNHMLQILALIAMEPPSSFNGENFRNERVKLLRSIRPFPVEELESWIVRGQYGRGVVNGKEVPAYREEPGVAKDSNVETFVAMKLFIDNWRWSGVPFYLRSGKRLPKKITEVAVVFKKIPHSIFAGVPSDELEPNTIVFTLQPNEGISLEFQVKRPCPGMFPQLLSMDFRYEDYFGVKLPDAYERLLLDVILGDPTLFMRRDDLEVSWELLDPVLKAWENDPVRFSPYVYPAGTWGPREADLLIERDGRKWRKL	not soluble
MSLETYIHEVVAPKLVGRDPLEIDRISKDLTGYLGFRSTGAEMRGNSAVDIGLWDLFGKATNLPIAQLLGGFSRREIRTYNTCAGNTYMRDAKGQQTANYGIGGPRRDYDDLNGFLERADELAEDLLSEGITAMKIWPFDIAAEKSGGQYISGPDLRKALEPFEKIRKRVGDRIDIMVEFHSMWQLTPAIQIARALEPYATFWHEDPIKMDSLSSLKRYAAASRAPLCASETLATRWAFRDLMETDAAGVVMLDLSWCGGISEAKKISTMAEAWHLPVAPHDCTGPVVLAASTHLSLNAPNALVQESVRAYYKTWYADLTTQLPTVTNGMITIPPGAGHGVDLAPDLDRKFEVSRRSSQIEDEGHHHHHH	not soluble
